Reference: publication PMC10992996, “Human CRB1 and CRB2 form homo- and heteromeric protein complexes in the retina” (Life Science Alliance, 2024)

Target: T1, CRB1-FLAG p.C480R (human, UniProt P82279 26-1406, p.C480R)
T1 construct: Crumbs homolog 1, canonical form, human, cDNA NM_202153 as printed, with a patient missense mutation; Made by site-directed mutagenesis of m1; also called CRB1 p.C480R; CRB1-FLAG MT; source: HEK293T, transfected, in lysate; not shown: Strep-Strep-FLAG, N-terminal, kept
T1 sequence (looked up): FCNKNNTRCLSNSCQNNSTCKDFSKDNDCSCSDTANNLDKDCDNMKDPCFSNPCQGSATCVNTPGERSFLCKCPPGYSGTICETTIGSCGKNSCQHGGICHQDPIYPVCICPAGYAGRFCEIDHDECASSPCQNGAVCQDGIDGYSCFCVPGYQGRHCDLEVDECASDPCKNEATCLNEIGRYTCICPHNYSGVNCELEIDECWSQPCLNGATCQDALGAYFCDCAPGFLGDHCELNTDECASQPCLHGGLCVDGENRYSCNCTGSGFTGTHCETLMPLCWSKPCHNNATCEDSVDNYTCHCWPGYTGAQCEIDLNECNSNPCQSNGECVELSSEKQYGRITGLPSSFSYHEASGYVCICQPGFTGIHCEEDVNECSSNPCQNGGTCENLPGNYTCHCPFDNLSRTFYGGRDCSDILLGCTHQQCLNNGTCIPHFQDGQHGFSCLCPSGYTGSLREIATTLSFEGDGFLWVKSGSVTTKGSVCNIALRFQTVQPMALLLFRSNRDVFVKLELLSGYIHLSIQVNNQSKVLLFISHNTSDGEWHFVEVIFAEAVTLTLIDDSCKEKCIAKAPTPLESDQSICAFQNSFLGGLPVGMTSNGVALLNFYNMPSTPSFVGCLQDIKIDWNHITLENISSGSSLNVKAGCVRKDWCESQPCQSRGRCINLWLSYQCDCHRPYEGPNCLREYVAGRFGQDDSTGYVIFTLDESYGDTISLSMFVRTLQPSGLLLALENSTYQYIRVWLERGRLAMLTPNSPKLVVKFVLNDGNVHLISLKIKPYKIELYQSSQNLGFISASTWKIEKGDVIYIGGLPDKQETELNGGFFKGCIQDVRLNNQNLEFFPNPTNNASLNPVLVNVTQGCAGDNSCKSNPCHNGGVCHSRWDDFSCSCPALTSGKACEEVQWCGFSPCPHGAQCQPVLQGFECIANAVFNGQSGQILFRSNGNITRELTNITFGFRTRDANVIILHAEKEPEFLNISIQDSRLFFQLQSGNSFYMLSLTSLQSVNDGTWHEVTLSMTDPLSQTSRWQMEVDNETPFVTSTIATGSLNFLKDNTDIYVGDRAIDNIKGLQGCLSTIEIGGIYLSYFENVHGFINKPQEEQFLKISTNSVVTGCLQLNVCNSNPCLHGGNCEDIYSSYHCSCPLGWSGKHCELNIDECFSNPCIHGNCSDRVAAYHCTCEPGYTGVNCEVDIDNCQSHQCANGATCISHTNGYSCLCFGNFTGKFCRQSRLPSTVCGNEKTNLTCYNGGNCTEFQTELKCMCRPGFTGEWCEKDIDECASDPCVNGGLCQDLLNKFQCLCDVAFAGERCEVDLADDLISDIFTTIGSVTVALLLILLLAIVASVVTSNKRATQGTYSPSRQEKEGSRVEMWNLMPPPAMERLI
Assay: co-IP; HEK293T cells co-transfected pairwise with a FLAG and an HA construct, 48 h; lysis in TBS (30 mM Tris-HCl pH 7.4, 150 mM NaCl) with 0.5% Nonidet P40; FLAG-IP on ANTI-FLAG M2 Affinity Gel 60-90 min at 4°C, elution with FLAG peptide; Western blot with HA and FLAG antibodies; for mutants HA/FLAG signal in eluates relative to WT, three biological replicates
Details: partners not purified

B1: Human canonical CRB2 (Crumbs homolog 2) (natural protein)
chain: not shown
notes: Crumbs homolog 2, human, cDNA NM_173689; Stood as bait (FLAG copy) and as prey (HA copy) in the pairwise co-IP matrix; each copy carries only one of the two tags; The FLAG copy was the bait of the mass spectrometry pull-downs; also called CRB2-FLAG; CRB2-HA; source: HEK293T, transfected, in lysate (co-IP); HEK293T, transfected, FLAG-IP on beads, washed and purified with 0.01% SDS (retina …)
  percent of the interaction capacity relative to CRB1 WT: 96%
